Target: GST-G3BP1 (human, UniProt Q13283 1-466)
Test: fluorescence anisotropy

Sequence of GST-G3BP1 (Q13283 whole entry): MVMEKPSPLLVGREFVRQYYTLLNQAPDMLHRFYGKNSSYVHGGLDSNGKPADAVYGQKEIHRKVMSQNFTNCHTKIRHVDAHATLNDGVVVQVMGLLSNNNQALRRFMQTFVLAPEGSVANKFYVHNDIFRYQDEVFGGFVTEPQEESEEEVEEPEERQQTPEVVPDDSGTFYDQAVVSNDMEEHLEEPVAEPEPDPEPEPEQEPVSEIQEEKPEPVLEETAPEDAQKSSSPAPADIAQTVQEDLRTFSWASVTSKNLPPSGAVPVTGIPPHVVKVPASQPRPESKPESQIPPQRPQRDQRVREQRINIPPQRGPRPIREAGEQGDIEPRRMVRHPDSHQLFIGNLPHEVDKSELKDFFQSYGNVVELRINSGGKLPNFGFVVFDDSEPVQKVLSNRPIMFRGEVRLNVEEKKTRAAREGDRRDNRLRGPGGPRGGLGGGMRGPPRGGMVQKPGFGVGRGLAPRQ

Binder	Kd
GAGCGCGGAAGCGCGCGCGCGCGCGCGCGG (ssRNA) [PITX1 rM4]	761 ± 73 nM
GUGUAAAAGGGGCGGGUCUGGGUGCG (ssRNA) [NRAS rM4]	266 ± 36 nM
